Experimental data: paper PMC3192843

System: nsp16;nsp10 (SARS-CoV strain WHU;SARS-CoV strain WHU)
Test: ITC
Settings: 5' m7GpppA cap-0

## m7GpppA-RNA
  Kd: 1.21 µM
